# B1: dsattI1 (dsDNA)
# DNA 1: ACGCCGTGGGTCGATGTTTGATGTTATGGAGCAGCAACGATGTTACGCAGCAGGGCAGTCGCCCTAAAACAAAGTTAGGTGGCTCAATGAGCATCATTGC
# DNA 2: GCAATGATGCTCATTGAGCCACCTAACTTTGTTTTAGGGCGACTGCCCTGCTGCGTAACATCGTTGCTGCTCCATAACATCAAACATCGACCCACGGCGT
# B2: dsattC (dsDNA)
# DNA 1: CGCCCGTCTAACAATTCGTTCAAGCCGACGTTGCTTCGTGGCGGCGCTTGCGTGCTACGCTAAGCTTCGCACGCCGCTTGCCACTGCGCACCGCGGCTTAACTCAGGCGTTAGATGCACT
# DNA 2: AGTGCATCTAACGCCTGAGTTAAGCCGCGGTGCGCAGTGGCAAGCGGCGTGCGAAGCTTAGCGTAGCACGCAAGCGCCGCCACGAAGCAACGTCGGCTTGAACGAATTGTTAGACGGGCG
# Legend:
# [1] = target: T1, IntI1(His)6 integron integrase (Pseudomonas aeruginosa Pa695 (class 1 …, UniProt Q7BP41 1-337)); assay: EMSA; EMSA: 0.1 pmol DNA, 1-15 pmol IntI1 in 20 µl, 20 min at 4°C, 1% agarose at 4°C; filter binding wash: HEPES 20 mM pH 7.5, MnCl2 10 mM, NaCl 30 mM (binding buffer itself not given); settings: protein: recombinant; tags: His6; chain copies: 2; label: 5' 32P; blunt
# T1 sequence: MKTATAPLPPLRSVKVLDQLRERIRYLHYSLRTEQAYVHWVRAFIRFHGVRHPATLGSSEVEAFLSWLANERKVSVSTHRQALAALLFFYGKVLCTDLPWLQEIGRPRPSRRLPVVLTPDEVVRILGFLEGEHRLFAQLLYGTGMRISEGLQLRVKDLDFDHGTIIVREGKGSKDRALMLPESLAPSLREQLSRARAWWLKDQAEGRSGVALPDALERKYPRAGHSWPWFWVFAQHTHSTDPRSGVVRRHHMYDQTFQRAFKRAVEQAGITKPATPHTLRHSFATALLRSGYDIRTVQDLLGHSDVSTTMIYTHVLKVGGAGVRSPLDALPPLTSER
# [2] = target: T1, IntI1(His)6 integron integrase; assay: EMSA; filter binding; preincubated with dsattI1 (0.1 pmol); binding strongly increased, almost to bsattC level; EMSA: 0.1 pmol DNA, 1-15 pmol IntI1 in 20 µl, 20 min at 4°C, 1% agarose at 4°C; filter binding wash: HEPES 20 mM pH 7.5, MnCl2 10 mM, NaCl 30 mM (binding buffer itself not given); settings: protein: recombinant; tags: His6; chain copies: 2; label: 5' 32P; blunt
Binder,binding result [1],binding result [2]
B1,binds,
B2,,binds
